# Laboratory results taken from paper PMC8092709 (Journal of Virology, 2021).
# B1: HCoV-229E S1-RBD (residues 295 to 428) with C-terminal Fc tag (Fc fusion)
# chain: VYHKHTFIVLYVDFKPQSGGGKCFNCYPAGVNITLANFNETKGPLCVDTSHFTTKYVAVYANVGRWSASINTGNCPFSFGKVNNFVKFGSVCFSLKDIPGGCAMPIVANWAYSKYYTIGSLYVSWSDGDGITGV
# B2: HCoV-229E S1 (residues 1 to 536) with C-terminal Fc tag (Fc fusion)
# chain: CQTTNGLNTSYSVCNGCVGYSENVFAVESGGYIPSDFAFNNWFLLTNTSSVVDGVVRSFQPLLLNCLWSVSGLRFTTGFVYFNGTGRGDCKGFSSDVLSDVIRYNLNFEENLRRGTILFKTSYGVVVFYCTNNTLVSGDAHIPFGTVLGNFYCFVNTTIGNETTSAFVGALPKTVREFVISRTGHFYINGYRYFTLGNVEAVNFNVTTAETTDFCTVALASYADVLVNVSQTSIANIIYCNSVINRLRCDQLSFDVPDGFYSTSPIQSVELPVSIVSLPVYHKHTFIVLYVDFKPQSGGGKCFNCYPAGVNITLANFNETKGPLCVDTSHFTTKYVAVYANVGRWSASINTGNCPFSFGKVNNFVKFGSVCFSLKDIPGGCAMPIVANWAYSKYYTIGSLYVSWSDGDGITGVPQPVEGVSSFMNVTLDKCTKYNIYDVSGVGVIRVSNDTFLNGITYTSTSGNLLGFKDVTKGTIYSITPCNPPDQLVVYQQAVVGAMLSENFTSYGFSNVVELPKFFYA
# Biological target: human aminopeptidase N (hAPN), residues 66 to 967 (human, UniProt P15144 66-967)
# Sequence (P15144 66-967): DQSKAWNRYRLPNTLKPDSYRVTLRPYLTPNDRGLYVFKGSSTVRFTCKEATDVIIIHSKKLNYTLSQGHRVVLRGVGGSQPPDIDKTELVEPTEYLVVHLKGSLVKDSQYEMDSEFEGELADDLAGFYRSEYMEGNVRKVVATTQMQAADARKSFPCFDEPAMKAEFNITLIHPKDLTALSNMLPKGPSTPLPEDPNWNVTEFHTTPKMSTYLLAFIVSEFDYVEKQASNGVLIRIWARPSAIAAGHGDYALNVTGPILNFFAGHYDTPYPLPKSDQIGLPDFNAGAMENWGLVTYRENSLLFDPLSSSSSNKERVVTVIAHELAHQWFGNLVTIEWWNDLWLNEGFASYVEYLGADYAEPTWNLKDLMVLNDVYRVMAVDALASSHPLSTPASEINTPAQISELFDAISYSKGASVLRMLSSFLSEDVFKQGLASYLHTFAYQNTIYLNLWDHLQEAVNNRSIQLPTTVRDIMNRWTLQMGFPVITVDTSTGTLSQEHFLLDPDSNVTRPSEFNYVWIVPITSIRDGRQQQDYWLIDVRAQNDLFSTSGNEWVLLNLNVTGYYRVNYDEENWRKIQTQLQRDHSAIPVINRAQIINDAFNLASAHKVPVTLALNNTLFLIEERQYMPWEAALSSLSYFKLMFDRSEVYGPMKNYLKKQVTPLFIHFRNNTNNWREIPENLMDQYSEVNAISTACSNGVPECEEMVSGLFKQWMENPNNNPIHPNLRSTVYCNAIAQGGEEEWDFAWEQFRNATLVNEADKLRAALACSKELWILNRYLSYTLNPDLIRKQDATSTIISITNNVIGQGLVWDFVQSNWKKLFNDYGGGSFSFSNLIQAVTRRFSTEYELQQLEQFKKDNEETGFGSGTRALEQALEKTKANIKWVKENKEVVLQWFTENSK
# Test: SPR
Binder,Kd [nM],koff [s⁻¹],kon [M⁻¹ s⁻¹]
B1,36,0.00115,32000
B2,255,0.000226,886
